In US20210061908A1 (IOMX THERAPEUTICS, published 2021):

T1: extracellular domain (ECD) of murine IGSF11, biotinylated (mouse, UniProt P0C673 23-240, biotinylated (site not stated))
T1 construct: also called Mouse IGSF11; murine IGSF11 protein
T1 sequence: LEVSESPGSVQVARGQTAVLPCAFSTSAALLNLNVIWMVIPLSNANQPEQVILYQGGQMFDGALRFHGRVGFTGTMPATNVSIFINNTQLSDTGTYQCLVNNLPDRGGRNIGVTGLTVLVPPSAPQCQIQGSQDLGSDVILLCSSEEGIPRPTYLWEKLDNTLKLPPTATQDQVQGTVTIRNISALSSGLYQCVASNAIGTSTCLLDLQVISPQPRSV

T2: extracellular domain (ECD) of human IGSF11 (VSIG3), biotinylated (human, UniProt Q5DX21 23-241, biotinylated (site not stated))
T2 construct: also called human IGSF11 protein
T2 sequence: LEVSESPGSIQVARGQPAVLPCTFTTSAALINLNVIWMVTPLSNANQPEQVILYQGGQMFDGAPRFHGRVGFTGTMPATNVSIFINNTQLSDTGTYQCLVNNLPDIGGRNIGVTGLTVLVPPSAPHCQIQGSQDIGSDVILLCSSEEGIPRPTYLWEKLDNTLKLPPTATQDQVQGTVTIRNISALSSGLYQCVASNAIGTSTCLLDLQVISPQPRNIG

B1: A-011 (scFv format) (scFv, V domains shown)
VH: QVQLVESGGGVVQPGRSLRLSCAASGFTFSSYAMHWVRQAPGKGLEWVAVISYDGSNKYYADSVKGRFTISRDNSKNTLYLQMNSLRAEDTAVYYCAEGGALNYYGMDVWGQGTTVTVSS
VL: SSELTQDPGVSVALGQTVRITCQGDSLRHFYATWYQQKPGQAPILVIYGKNNRPSGIPDRFSGSSSEDTASLTITGAQAEDEADYYCQSRDPRNNHLIFGGGTKLIVL
notes: scFv
B2: A-014 (scFv format) (scFv, V domains shown)
VH: QVQLVQSGAEVKKPGASVKVSCKASGYTFNDYYIHWVRQAPGQGLEWMGWFNPSTGGANYAQKFQGRVTMTRDTSISTAYLEVSSLRSDDTAVYYCARGNSPDLDYWGQGTLVTVSS
VL: DIQMTQSPDSLTVSLGERATINCKSSQSLLHSSNNKNYLAWYQQRPGQPPKLLIYWASTRQSGVPDRFSGSGSGTDFTLTINSLQADDMAVYYCQQYYTTTPNTFGQGTKLEIK
notes: scFv
B3: A-015 (scFv format) (scFv, V domains shown)
VH: not shown
VL: QPVLTQSPSASASLGASVKLTCTLSSGHTNYAIAWRQQQPGKAPRYLMLLNSDGSHTRGGGIPDRFSGSSSGAERYLTISSLQSEDEADYYCMIWHNNAWVFGGGTKLAVL
notes: scFv
B4: A-016 (scFv format) (scFv, V domains shown)
VH: QVQLQESGAEVKKPGASVKVSCKASGYTFTGYYMHWVRQAPGQGLEWMGGIIPIFGTANYAQKFQGRVTITADESTSTAYMELSSLRSEDTAVYYCAGAGMELTRSGAYYYYGMDVWGQGTTVTVSS
VL: QSALTQPASVSGSPGQSITISCTGTSSDIGGYTFVSWYQQHPGKAPKVMIHDVNNRPSGISNRFSGSKSGNTASLTISGLQAEDEADYYCSSVTSTNTYVFGTGTKVTVL
notes: scFv
B5: A-017 (scFv format) (scFv, V domains shown)
VH: QVQLVQSGAEVKKPGASVKVSCKASGYTFTGYYMHWVRQAPGQGLEWMGWINPNSGNTGYAQKFQGRVTMTRNTSISTAYMELSSLRSEDTAVYYCARGGQQQLVLDDYWGQGTLVTVSS
VL: DIVLTQSPASLSASVGDRITITCQASQDIRHHLNWFQHKPGKAPKLLISDSSNLETGVPSRFSGSGSGTDFSFTISRLQPEDIATYYCQQYDSLPRTFGQGTKLEIK
notes: scFv
B6: A-019 (scFv format) (scFv, V domains shown)
VH: B5 VH
VL: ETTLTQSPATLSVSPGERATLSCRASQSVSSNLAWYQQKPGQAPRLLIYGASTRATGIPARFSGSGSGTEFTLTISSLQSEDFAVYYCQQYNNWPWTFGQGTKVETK
notes: scFv
B7: A-021 (scFv format) (scFv, V domains shown)
VH: QVQLVQSGAEVKKPGASVKVSCKASGYTFTSYGISWVRQAPGQGLEWMGWISAYNGNTNYAQKLQGRVTMTTDTSTSTAYMELRSLRSDDTAVYYCARVPAWSGQFDYWGQGTLVTVSS
VL: QSALTQPASVSGSPGQSITISCTGTSSDVGGYNYVSWYQQHPGKAPKLMIYEVTNRPSGVSDRFSGSKSANTASLTISELQAEDEAVYYCNSYTSGPTYVLFGGGTQLTVL
notes: scFv
B8: A-022 (scFv format) (scFv, V domains shown)
VH: EVQLLESGPGLVKPSQTLSLTCTVSGGSISSGGYYWSWIRQHPGKGLEWIGYIYYSGSTYYNPSLKSRVTISVDTSKNQFSLKLSSVTAADTAVYYCARASRSTDYYFDYWGQGTLVTVSS
VL: QPGLTQPPSMSYGLGQTATLTCTGNRNNIGDQGAAWLQQHQGHPPKLLSYRNNNGPSGISERLSASRSGNTASLTISGLQPEDEADYYCSAWDSSLRAWVFGGGTKLTVL
notes: scFv
B9: A-003 (scFv format) (scFv, V domains shown)
VH: VQLVQSGAEVKKPGSSVKVSCKASGGTFSSYAISWVRQAPGQGLEWMGGIIPIFGTANYAQKFQGRVTITADESTSTAYMELSSLRSEDTAVYYCASPRIQLWAAGGFDYWGQGTLVTVSS
VL: QSALTQPASVSGSPGQSITISCTGTSSDVGGYNLVSWYQQHPGKAPKLMIYDVSNRPSGVSNRFSGSKSGNTASLTISGLQAEDEADYYCSSFTTSTTLVFGGGTKLTVL
notes: scFv
B10: A-023 (scFv format) (scFv, V domains shown)
VH: QVQLVQSGAEVKKPGSSVKVSCKASGGTFSSYAISWVRQAPGQGLEWMGGIIPIFGTANYAQKFQGRVTITADESTSTAYMELSSLRSEDTAVYYCARPKYSSGWFYYYGMDVWGQGTTVTVSS
VL: QSVLTQPPSVSAAPGQKVTISCSGSSSNIGNNYVSWYQQLPGTAPKLLIYDNNKRPSGIPDRFSGSKSGTSATLGITGLQTGDEADYYCGTWDSSLSVVFGGGTKLTVL
notes: scFv
B11: A-024 (scFv format) (scFv, V domains shown)
VH: QMQLVQSGAEVKKPGSSVKVSCKASGGTFSSYAISWVRQAPGQGLEWMGWISAYNGNTNYAQKLQGRVTMTTDTSTSTAYMELRSLRSDDTAVYYCASLGSYGYTGAFDIWGQGTMATVSS
VL: QSALTQPASVSGSPGQSITISCTGTSSDVGGYNYVSWYQQHPGKAPKLMIYEVSNRPSGVSNRFSGSKSGNTASLTISGLQAEDEADYYCSSYTSSSTLVVFGGGTKLTVL
B12: A-025 (scFv format) (scFv, V domains shown)
VH: QVQLVQSGAEVKKPGSSVKVSCKASGGTFSSYAISWVRQAPGQGLEWMGGIIPIFGTANYAQKFQGRVTITADESTSTAYMELTSLRSEDTAVYYCARGGWLRQNWFDPWGQGTLVTVSS
VL: SSELTQDPAVSVALGQTVRITCQGDSLRSYYASWYQQKPGQAPVLVIYGKNNRPSGIPDRFSGSSSGNTASLTITGAQAEDEADYYCNSRDSSGNHPRVFGGGTKLTVL
notes: scFv
B13: A-026 (scFv format) (scFv, V domains shown)
VH: QVQLQESGPGLVKPSQTLSLTCTVSGGSISSGGYYWSWIRQHPGKGLEWIGYIYYSGSTYYNPSLKSRVTISVDTSKNQFSLKLSSVTAADTAVYYCASWSLGTSNHGWFDPWGQGTLVTVSS
VL: QSVLTQPPSASGTPGQRVTISCSGSSSNIGSNTVNWYQQLPGTAPKLLISDNNNRPSGVPDRFSGSKSGTSASLAITGLQAEDEADYYCQSYDSNLSGWVFGGGTKLTVL
notes: scFv
B14: A-027 (scFv format) (scFv, V domains shown)
VH: QVQLVQSGAEVKKPGSSVKVSCKASGGTFSSYAISWVRQAPGQGLEWMGGIIPIFGTANYAQKFQGRVTITADKSTSTAYMELSSLRSEDTAVYYCARARGSTWGYFDYWGQGTLVTVSS
VL: EIVLTQSPASLSLSPGERVTLSCRASQSVSNYLAWYQQKPGQAPRLLIYDASNRATGIPARFSGSGSGTDFTLTISSLEPEDFAVYYCQQRDNWPLTFGGGTKVEIK
notes: scFv
B15: A-028 (scFv format) (scFv, V domains shown)
VH: QVQLVQSGAEVKKPGSSVKVSCKASGGTFSSYAISWVRQAPGQGLEWMGGIIPIFGTANYAQKFQGRVTITADESTSTAYMELSSLRSEDTAVYYCARVGVEYQLLWYFDYWGQGTLVTVSS
VL: DIQMTQSPSSLSASVGDRVTLTCRTSQTISNYLNWYQQKPGKAPKLLVYAASNLQSWVPSRFSGSGSGTDFTLTISSLQPEDFATYYCQQSYNASFGGGTKVEFK
notes: scFv

Target: T1, extracellular domain (ECD) of murine …
Experiment: ELISA, scFv; RFU grade (*** >1.0, ** 0.5-1.0, * 0.1-0.5)

Binder | relative fluorescent units (RFU), ELISA [rfu]
B1 | > 1
B2 | 0.1 to 0.5
B3 | 0.5 to 1
B4 | 0.5 to 1
B5 | 0.1 to 0.5
B6 | 0.5 to 1
B7 | 0.1 to 0.5
B8 | > 1
B9 | 0.1 to 0.5
B10 | 0.1 to 0.5
B11 | 0.1 to 0.5
B12 | 0.1 to 0.5
B13 | > 1
B14 | 0.1 to 0.5
B15 | 0.1 to 0.5

Target: T2, extracellular domain (ECD) of human …
Experiment: as above

Binder | relative fluorescent units (RFU), ELISA [rfu]
B1 | 0.1 to 0.5
B2 | 0.5 to 1
B3 | 0.5 to 1
B4 | > 1
B5 | 0.5 to 1
B6 | > 1
B7 | 0.5 to 1
B8 | 0.5 to 1
B9 | 0.1 to 0.5
B10 | 0.5 to 1
B11 | 0.5 to 1
B12 | 0.1 to 0.5
B13 | > 1
B14 | 0.1 to 0.5
B15 | 0.1 to 0.5
